The values below come from the supplement of paper PMC12636428.

In the series the test system is Saccharomyces cerevisiae. As to the kind of experiment: transcriptional activation domain activity (GFP:mCherry ratio, weighted mean of sorted bins, harmonized to initial dataset scale) (arbitrary fluorescence ratio units); higher = stronger transcriptional activation. As to conditions: beta-estradiol 1 µM; induction time 4 h. In outline: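 Barcoded protein tiles fused to an estradiol-inducible synthetic transcription factor were integrated at the yeast URA3 locus, in diploids carrying a GFP reporter. Cultures were diluted 1:5 into SC with 1 uM beta-estradiol, held 4 hours at 30 °C, sorted into 8 bins by GFP:mCherry ratio, and barcodes sequenced. Tiles under 50 reads were discarded. Activation activity is the read-weighted mean of bin median fluorescence, averaged across barcodes, then linearly mapped onto the initial dataset scale.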

With “SGTSLFLFYFYFIFILILISIITFFFLFLIFFFIILFLLLLFFSYPSGIRPGW”, the “transcriptional activation domain activity” value stood at 26900. As to “SGWQRHIILHESLLNRYEHVIIVFVKSHLPSAGLLLKQFCVSGRILARMWRNG”, the “transcriptional activation domain activity” value is 47800. Turning to “SHALQNRRASHASSAGSGSRRGSREETGEHHHKKHHHHKKHHHRRHSHGGGGG”, the “transcriptional activation domain activity” value is 54500. The figure for “SHDTFPLRPILVKLLCHAMLMKGVDPVSIIEKQPMTYGFVADILLPLVLDLPS” is 62200; for “SHFLPLLLFLSLSFILFSFPFILPFSLISLFSYFFLPFLHISTLFHSYFSFLL” it is 47400; for “SHLDRRSNQFCRVQFCYKHLLLLWFFLLLFLAYPCQLLCIIIFPNLVSSLCRF” it is 31200.

On to “SHLEQMLWRICSLVIICAPMYLALSGKVFLIFSNSIGQLYILLCIRGPFLLYI”, for which the “transcriptional activation domain activity” value worked out at 69600.

“SHNTHTLSLSLPFPSYSSYSDLIFLFLFLLLFFFFLFLFLFLFLFLFLFSLPF”: the “transcriptional activation domain activity” value was determined as 34100.

On to “SHPDIMDAAVIGVEGEGTEVPRAYVVADRKKVNEKKVQEWVKGRTARNKRLRG”, for which the “transcriptional activation domain activity” value was determined as 25900. As for “SHQEHVIAQLMNKVKSVSTTKPYVEYFQMPSKSVFITIVALCLYVILLKKTPS”, the figure is 15500; as for “SHQVLSCLAIFVFPRLAFITLSDNLLILSLRSMMSDFVFLMLLGAWCFLGFLY”, 55200. As for “SHREEAHEKASESESESGSEEQGSGGEKSEPKPEAEADGAADEASPGEEEGSQ”, the figure is 24600; as for “SHRKGIERKKRLREEERRREAKENGIVLEREKRADKGKERGRRDRGVDAPGVG”, 26800. The figure for “SHSGVSRSGKRDASRSTSASGLGRNNGNASASGNGSRKGKRRSEGAGGRGKRV” is 13500; for “SHTAEPSDADGEGTRATRRAKTKSKSTGKSREAGKRSNGARKGGGRADSGGKD” it is 46800.

Regarding “SHYALCVNMHAYWHSNPHFGSEHRWLGFPPFYHVFGLSYILLLAPCLGATVCV”, the “transcriptional activation domain activity” value is 61100. The figure for “SIAISPESAVANLGTDTGLPSDVLDTVSKIGNSPNVFDDDLFSNLLWFDQNFA” is 142000; for “SICCALQDWYDYFSTLSYQDTLKSNIWYSLAETEYYWLHLLLFLPHLKRYLTR” it is 47600. As for “SICRLGVGLSITGYRLGSMVLLRHDLRLIVTVFSMHLKYFVSFARPSMKILLR”, the figure is 67300; as for “SIDSAAHHDNSTIPLDFMPRDALHGFDWSEEDDMSDGLPFLKTDPNNNGFFGD”, 69800; as for “SIEDMTGWKLLHGDVFRAPPNGNILAPLVGSGCQLVYMATGLLMLSCLGILNP”, 41600.

For “SIFVVFFISFVPLVVQELTERGFWRAATRLAKHFGSLSFLFEVFVCQVYANSL”, the “transcriptional activation domain activity” value is 65500. As for “SIHEPVDFLEPQPFLDFFVVFCFRLLFLWLLIFIFLFRLFIVFSLLFLFLHHI”, the figure is 28600; as for “SIHLPKKITICTYIGTYYAIGAAWGFVLMNYFLTGWYFGLYDKYYIDSFGIYV”, 76000. The figure for “SIILLCLPAAYFLFNIFSVGLLSLGFSHRLIPGIPRLRRYIFVPGVFLYIFAR” is 54300. As for “SIKVTRYLLNLAHCTNDQWFYYIVFFFAELVVYTIMIVAIGSILFQWRFFCLV”, the figure is 52100; as for “SILASLGFIVCGVYIWVTSHWNPQHVRDGLPLLYFSGHLRCKIYSIVLNLFVT”, 69900; as for “SILLMQHNLYHFIHFFKKIRQVIEKGEYPSFKQELIQNLGQTGWWKFLNAKSL”, 59500. As to “SIMHALRQFCTEMRATQFQDCRLRTVQLLLRLLPSANLSLFVYLLAFLSQIVQ”, the “transcriptional activation domain activity” value was found to be 36200.

On to “SIPPPPPPPAPPGPSRGGPPPPPPPPPPGGRGGAPPPPPPPPGGRAPPAPPAP”, for which the “transcriptional activation domain activity” value turned out to be 22100. The figure for “SIRVILLNLGLSNGLETIPYGLISIIYQSKYQSFAYTLLFFSNLFTYSLWYVV” is 61200; for “SISFIGHRMMFWFFACVGLACLFMAGALAVMCLHYLLMIFLFYLRCYPPYLGS” it is 31900. As to “SISQFCWIWYTRPRPLQDICYYDSASRGPWGCFLLLLRLRFIRFACIGAIITL”, the “transcriptional activation domain activity” value is 78600.

As to “SITILVNIFLLHGSVKFIQKCLQYIGYIAEEVRSSLPLHKCLYWPLLIMLRLL”, the “transcriptional activation domain activity” value was 45200. The figure for “SIWSFSTLLSILARDHVFYFFIKQNVDTFYIWLLETTAIYYIFMLGPIMFLSI” is 60600; for “SIYCRLIQKSLFLMMVPIVQMPPLLLLLTCYFLRIFLSFFTRMYFVCFVLIFL” it is 62400; for “SIYLCTHGTFFVVVTPIYFDYPCCGNPLVLFSSTLGMIIHFILFFFCLPCFFL” it is 63100. As for “SKADTEDGEEAVDDTATEEKPEAKAEEVTEETTTEKEAEAAAESAAAEKLRRD”, the figure is 25700. As for “SKAGLILVIRRQGNEIICGAYRNLGFKMLWKLYVKSLFDVMGQWHEVYATSKP”, the figure is 64000. For the sequence “SKARSRGQSSRTRKRGRQESSGESSSSEEEDSYRGRQGRSKAGKKGKDKGKGK”, the “transcriptional activation domain activity” value was determined as 27200. As for “SKDARETNPEGEEIEKQRRKKRSREEKEDNERSSRKRRSSRSRSPRRQKEKAN”, the figure is 30900; as for “SKDDRSISSEDKASSDKLKKSSDRADRKRKDDDDSKRSKADRKSKRDEERSSD”, 29600; as for “SKDEEGEGEGEGDEEKVEEGGDEDGEQVEGEDGAKSAAATASAKKFSKREKEM”, 48900. “SKDLTRLTLISIMLEKCEGDYSAACVEQYLTVLLKFAVLAVVSDQTLHLSILA”: the “transcriptional activation domain activity” value worked out at 52000.

Regarding “SKEKLSAVENSHAIKLEIILEGIGSIMLSHPNDMQLLSRVVRLLVRVAIQFRR”, the “transcriptional activation domain activity” value stood at 56500. As for “SKEREQRERSVEQEQPRRKNGRRRRDKRDEQRRRNRRRSSSSRRESRSSRRES”, the figure is 44600; as for “SKFASSGLFGVDVYSVWKRATEKISDGNNTTDSNQKHHPYHNHPSNDSGNEKN”, 41500.

In the case of “SKGAKKDAGPRGAVRRAKKKGGVEPEKKKREKDGGSREKSRSSSKKEKGGFER”, the “transcriptional activation domain activity” value turned out to be 15200. The figure for “SKGNSINTFLEQVTFQVVPMLIDLCVAIGYFLVAFDAYYALVVAIVTFCYLYV” is 44100; for “SKHATEAEKKKEEEKKSKSKEAPAKKEKKEKVKEEKPKEKVVAKIPEPAPSEP” it is 20200; for “SKHEDQKSRRSRDEKDRGSRSSRHREDGHRSHRDRSRSRDRHHRSSKHHERRR” it is 27700.

With “SKHRRRHRSSSRERHRHRERDGEPSSSRHRSRRDRSRSKDRSKKEESHRSHRS”, the “transcriptional activation domain activity” value turned out to be 24500. Turning to “SKHSKKRSSKRARSSSSSSSSSSSEEDDRRRRKRRKEKKRSHKKSHTRRRSRS”, the “transcriptional activation domain activity” value was found to be 32700.

Regarding “SKIAWMILNIKYITQILTTIMRMHGQIEKNPLRPEVVPQFVGICRWIMQFMIY”, the “transcriptional activation domain activity” value stood at 55700. As for “SKKKGRKAQKTGSADPAPNESKDRAGATEEAAEGAADEEDEQDEDEDEDEEGE”, the figure is 37600. The figure for “SKKRKIKGGKSRSSSSKSDSSSSSSSSEDGEEKDLSKGVGKRGAKRAKSDDSS” is 19000; for “SKMLTEFKQKLRLDYFMLLDLRLWKDMRMCLRKMFISTLVANLSYKRILGVRF” it is 73200. As for “SKNDSASDEEEEGDDLPSAYCTVILNHQKVFKTRTKPKNSKPFFNAGCERFIP”, the figure is 57400; as for “SKPSARKASSRSVASKEQAAVAAKKVASVEEQKKKRGRPRKLPLSDATNEVAS”, 42100; as for “SKPSSNGRSDCSKHSTGKDASNKKNNRGKSKKAKKKTAAAKANTTDNESDSSD”, 33600.

In the case of “SKQAGVGGEDEGEEDVPEDFGHSDNIRKKLLEVLGRDRRDRVLSSLYIVRADG”, the “transcriptional activation domain activity” value came out at 43800. As for “SKRAQDPLRIWDAMIDVHVHLPAGAQKKDGPSAGVAMVIVCAIVSLLTGKCVP”, the figure is 46600; as for “SKRREIRKTKEARREGSERRDGEADSEEKAREGKGSKRRRRGTGRRAEEAAKG”, 27400; as for “SKSESTHSSAKKADSGKRSGRSKPATSDGGPKGFDSKPSGEKSKKESSRSTKE”, 36600. In the case of “SKSEVSGTGRKAYAQKGRGKARVHSLRAPQFRGGGRAFPVKPRDFSSEIQIKV”, the “transcriptional activation domain activity” value worked out at 61100. As for “SKSRSSSSSSSSSSSSSSSSSSSESEKSHSKHKSKSKSKSKARKSKSKSKHRG”, the figure is 18100; as for “SKTAGPSSNSPSQTGKDDKAAASSSTSAGGAPAATGRVIAGLAAGVAMGLAAA”, 37700.

Consider “SKVYLLKHFEGYIMGKLYGDYEYTFLDLQRTKGMHFVQKYLRMKHVIVFKLSH”, for which the “transcriptional activation domain activity” value was 58700.

As to “SKWEVANKKTRDEASKGGGGKGGGGGKGGKAGEGGKEKRSEKKAAAKEGGKKK”, the “transcriptional activation domain activity” value turned out to be 39600. The figure for “SKWTTVDADDDLMRTFIRAYFLYEYDWFTFFHKDYFLDDMLAGSSTFCSPLLV” is 42000; for “SKWWLLGDSFEADILTFITLYQFVNAGFVFNYGYIFRKSWYRNYLLICIWALF” it is 67200. As for “SLADEKERGLLTGDDNRDEYLGRNLRGMIHEFRWQTLVLLKCCLLQPKMLFFS”, the figure is 58100. As for “SLAFPLFIIARYFPLGLIAIDFIQLAAPTHSQVTCTVLFRLYILLLMIITFST”, the figure is 40900.

Consider “SLAFQVDFTRKYGMVGFFLFWMMSQEAHHDPLLLLLHSPLYFPIFLLFWVILN”, for which the “transcriptional activation domain activity” value was determined as 68800.
